Legend:
[1] = tested on: Nicotiana plumbaginifolia acetolactate synthase (ALS) holoenzyme: N. plumbaginifolia LSU (encoded by pMTDRALS; ALS10 cDNA SEQ ID NO:42, predicted polypeptide …); assay: Inhibition of reconstituted plant ALS holoenzyme by herbicides (acetoin detection, microtiter plate); type: biochemical; details: holoenzyme (LSU + GST-SSU, thrombin cleaved); sodium pyruvate started (10 μL of 500 mM per well); pH 7.6; 37° C., 30 min; read-out: I50
Protocol: The plasmid pSSU Bbs/Bam was digested to completion with Bbs I and Xho I and the digestion products were separated by electrophoresis using a […] agarose gel and the 1.35 kbp Bbs I/Xho I fragment was recovered from the gel. Three hundred ng of this DNA was ligated with 1 μg of the plasmid pGEX-2TM that had been digested to completion with BamH I and Xho I and dephosphorylated as described above. The ligation reaction was diluted five fold with H2O and used to transform competent Max Efficiency E. coli DH5α as described above. […] This plasmid was designated pGEX-SSU.
The plasmid ALS10 that contains a full length cDNA copy of the Nicotiana plumbaginifolia ALS gene in the plasmid vector pBluescript was used as the source of the ALS coding region for pMTDRALS. The sequence of this cDNA is shown in SEQ ID NO:42. ALS10 was digested to completion with Xho I and Eco0109I, and the digestion products were separated by agarose gel electrophoresis. […] The plates were incubated overnight at 37° C. and plasmids isolated from kanamycin-resistant bacterial colonies were analyzed for the presence of the insert encoding the ALS large subunit by double digestion with Nde I and Xho I. One such plasmid, designated pMTDRALS was then transformed into E. coli BL21(DE3) using methods known to those skilled in the art. […]

[2] = molecular target: N. plumbaginifolia ALS large subunit from plasmid pMTDRALS (Nicotiana plumbaginifolia); assay: cell-based or functional assay
[3] = molecular target: free Arabidopsis thaliana ALS large subunit released from GST-LSU by thrombin (Arabidopsis thaliana) (UniProt P17597); assay: cell-based or functional assay
[4] = molecular target: GST-LSU: A. thaliana ALS large subunit expressed as a glutathione-S-transferase fusion protein from plasmid pGEX-OCM2 (Arabidopsis thaliana) (UniProt P17597); assay: cell-based or functional assay

Work on `CC(C)C1(C)N=C(c2nc3ccccc3cc2C(=O)O)NC1=O` (stereo not shown) [imazequin] yielded an IC50 [1] of 0.8 µM.

“free N. plumbaginifolia ALS small subunit released from Trx-HIS/SSU by thrombin” was tested, and the Specific Activity after thrombin addition (units/mg LSU), ALS enzyme assay [2] was 6.5 units/mg LSU, the Specific Activity after thrombin addition (units/mg LSU), ALS enzyme assay [3] was 1.1 units/mg LSU and the fold increase in specific activity (sample 2 against sample 1, after thrombin) [3] was > 20 fold.

“bovine serum albumin (from UniProt P02769 25-607)” gave a Specific Activity before thrombin addition (units/mg LSU), ALS enzyme assay [4] of 0.3 units/mg LSU, a Specific Activity after thrombin addition (units/mg LSU), ALS enzyme assay [2] of 0.4 units/mg LSU and a Specific Activity before thrombin addition (units/mg LSU), ALS enzyme assay [2] of 1.1 units/mg LSU. For the same compound, the Specific Activity after thrombin addition (units/mg LSU), ALS enzyme assay [3] was 0.04 units/mg LSU.

`CCc1cnc(C2=NC(C)(C(C)C)C(=O)N2)c(C(=O)O)c1` (stereo not shown) [imezethapyr] was tested, and the IC50 [1] was 4 µM.

With “Trx-HIS/SSU: N. plumbaginifolia acetolactate synthase small subunit expressed as a thioredoxin fusion from plasmid pTrx-HIS/SSU (from UniProt P0AA25 1-109)” the Specific Activity before thrombin addition (units/mg LSU), ALS enzyme assay [4] was 0.9 units/mg LSU, the fold increase in specific activity (sample 2 against sample 1, before thrombin) [4] was 3 fold and the Specific Activity before thrombin addition (units/mg LSU), ALS enzyme assay [2] was 5.5 units/mg LSU. It also gave a fold increase in specific activity (sample 4 against sample 3, before thrombin) [2] of 5 fold.

— patent US20010044939A1, “Small subunit of plant acetolactate synthase” (priority 2000, published 2001)
